The values below are quoted from earlier work in paper PMC8410215.

A word on the pKa: it is the negative logarithm of the acid dissociation constant.

The target of the data set is Glu66 (UniProt position 148, FTKKMEENAKK). The settings on record: folded protein with Glu66 buried in the interior; water molecules penetrate to form a small channel around the residue.

In the case of “Staphylococcal nuclease V66E variant (Staphylococcus aureus; V66E)”, the pKa was 8.8.
